Experimental findings from patent publication US20180155451A1 (published 2018) are described below.

The labels stand for the following.
T1: FcγRIIb extracellular domain with C-terminal His tag (human, UniProt P31994 43-217)
T1 construct: extracellular domain; Soluble receptor expressed in FreeStyle293 cells and used as analyte in Biacore; also called FcgRIIb; 2b; not shown: His tag at the C terminus
T1 sequence (looked up): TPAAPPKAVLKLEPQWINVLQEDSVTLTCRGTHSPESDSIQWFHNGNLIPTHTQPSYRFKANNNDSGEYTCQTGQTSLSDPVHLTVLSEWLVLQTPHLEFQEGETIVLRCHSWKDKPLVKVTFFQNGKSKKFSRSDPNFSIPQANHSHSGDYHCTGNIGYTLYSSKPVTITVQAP

T2: FcγRIIb (human, UniProt P31994 43-217)
T2 construct: extracellular domain; Soluble His-tagged extracellular domain expressed in FreeStyle293 cells; also called FcgRIIb; 2b; not shown: His tag attached to the C terminus
T2 sequence (looked up): T1 sequence (looked up)

T3: FcγRIIa H (human, UniProt P12318 34-217)
T3 construct: extracellular domain; Soluble His-tagged extracellular domain expressed in FreeStyle293 cells; also called FcγRIIa type H; FcgRIIa H; not shown: His tag attached to the C terminus
T3 sequence (looked up): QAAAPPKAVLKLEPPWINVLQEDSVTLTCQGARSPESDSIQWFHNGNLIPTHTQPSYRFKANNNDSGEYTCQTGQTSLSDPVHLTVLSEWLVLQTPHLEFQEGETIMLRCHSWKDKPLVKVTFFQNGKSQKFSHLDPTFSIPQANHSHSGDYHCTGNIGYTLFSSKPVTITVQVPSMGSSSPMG

B1: heterodimerized antibody GpH7-A5/GpH7-B3 variant S298_04F/GpL16-k0 (antibody, human IgG1, kappa)
heavy 1: not shown
heavy 2: not shown
light: DIVMTQSPLSLPVTPGEPASISCQASESLVHSNRNTYLHWYLQKPGQSPQLLIYKVSNRFSGVPDRFSGSGSGTDFTLKISRVEAEDVGVYYCSQNTHVPPTFGQGTKVEIERTVAAPSVFIFPPSDEQLKSGTASVVCLLNNFYPREAKVQWKVDNALQSGNSQESVTEQDSKDSTYSLSSTLTLSKADYEKHKVYACEVTHQGLSSPVTKSFNRGEC
notes: Substitution in only one H chain (GpH7-B3 side); also called He Ab
B2: heterodimerized antibody GpH7-A5/GpH7-B3 variant Y296_11K/GpL16-k0 (antibody, human IgG1, kappa)
heavy 1: not shown
heavy 2: not shown
light: B1 light
notes: as for B1
B3: heterodimerized antibody GpH7-A5/GpH7-B3 variant Q295_20W/GpL16-k0 (antibody, human IgG1, kappa)
heavy 1: not shown
heavy 2: not shown
light: B1 light
notes: as for B1
B4: GpH7-A5/GpH7-B3 variant N325_10E/GpL16-k0 (antibody, human IgG1, kappa)
heavy 1: not shown
heavy 2: not shown
light: B1 light
notes: Heterodimerized anti-glypican-3 IgG1; mutation in the GpH7-B3 H chain only; also called He Ab
B5: GpH7-B3 variant Q295_11K/GpL16-k0 (antibody, human IgG1, kappa)
heavy: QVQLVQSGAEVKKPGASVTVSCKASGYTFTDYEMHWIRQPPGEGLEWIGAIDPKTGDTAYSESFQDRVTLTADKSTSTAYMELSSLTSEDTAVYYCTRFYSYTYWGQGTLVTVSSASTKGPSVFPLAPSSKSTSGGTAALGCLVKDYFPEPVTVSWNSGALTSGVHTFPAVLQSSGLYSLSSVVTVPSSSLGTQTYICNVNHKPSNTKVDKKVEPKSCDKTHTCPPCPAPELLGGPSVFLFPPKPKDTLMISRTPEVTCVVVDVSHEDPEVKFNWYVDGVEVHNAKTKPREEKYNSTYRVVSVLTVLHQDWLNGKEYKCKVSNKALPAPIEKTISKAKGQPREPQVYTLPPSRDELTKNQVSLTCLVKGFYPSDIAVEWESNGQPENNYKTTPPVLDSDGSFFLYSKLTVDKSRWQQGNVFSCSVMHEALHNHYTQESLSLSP
light: B1 light
notes: mutation in both H chains; also called Ho Ab Q295_11K; Q295K
B6: GpH7-B3 variant Q295_04F/GpL16-k0 (antibody, human IgG1, kappa)
heavy: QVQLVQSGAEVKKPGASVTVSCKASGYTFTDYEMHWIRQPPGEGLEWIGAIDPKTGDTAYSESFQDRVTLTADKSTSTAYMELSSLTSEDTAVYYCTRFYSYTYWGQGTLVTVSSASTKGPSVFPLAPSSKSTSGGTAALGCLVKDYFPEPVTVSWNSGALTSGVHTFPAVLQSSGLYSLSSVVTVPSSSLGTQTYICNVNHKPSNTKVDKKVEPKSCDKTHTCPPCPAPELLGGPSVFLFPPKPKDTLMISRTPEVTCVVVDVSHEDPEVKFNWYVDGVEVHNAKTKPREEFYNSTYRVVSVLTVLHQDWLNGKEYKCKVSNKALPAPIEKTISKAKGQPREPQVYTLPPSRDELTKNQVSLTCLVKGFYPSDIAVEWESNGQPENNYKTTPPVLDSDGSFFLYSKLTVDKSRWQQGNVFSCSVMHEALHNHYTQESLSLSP
light: B1 light
notes: mutation in both H chains; also called Ho Ab Q295_04F; Q295F
B7: GpH7-B3 variant Q295_05P/GpL16-k0 (antibody, human IgG1, kappa)
heavy: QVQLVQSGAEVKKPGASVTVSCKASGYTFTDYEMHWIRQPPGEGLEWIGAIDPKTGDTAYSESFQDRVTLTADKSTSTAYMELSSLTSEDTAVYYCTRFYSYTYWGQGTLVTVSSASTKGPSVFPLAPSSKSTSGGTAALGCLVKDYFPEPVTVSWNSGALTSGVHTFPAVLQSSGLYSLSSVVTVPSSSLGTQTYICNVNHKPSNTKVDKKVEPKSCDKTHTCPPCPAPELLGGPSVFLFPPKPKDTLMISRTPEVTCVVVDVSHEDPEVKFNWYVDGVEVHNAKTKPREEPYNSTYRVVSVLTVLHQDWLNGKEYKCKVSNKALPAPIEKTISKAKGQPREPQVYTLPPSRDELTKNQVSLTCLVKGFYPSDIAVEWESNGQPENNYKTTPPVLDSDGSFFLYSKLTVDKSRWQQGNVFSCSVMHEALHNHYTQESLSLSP
light: B1 light
notes: mutation in both H chains; also called Ho Ab Q295_05P; Q295P
B8: GpH7-B3 variant Q295_09D/GpL16-k0 (antibody, human IgG1, kappa)
heavy: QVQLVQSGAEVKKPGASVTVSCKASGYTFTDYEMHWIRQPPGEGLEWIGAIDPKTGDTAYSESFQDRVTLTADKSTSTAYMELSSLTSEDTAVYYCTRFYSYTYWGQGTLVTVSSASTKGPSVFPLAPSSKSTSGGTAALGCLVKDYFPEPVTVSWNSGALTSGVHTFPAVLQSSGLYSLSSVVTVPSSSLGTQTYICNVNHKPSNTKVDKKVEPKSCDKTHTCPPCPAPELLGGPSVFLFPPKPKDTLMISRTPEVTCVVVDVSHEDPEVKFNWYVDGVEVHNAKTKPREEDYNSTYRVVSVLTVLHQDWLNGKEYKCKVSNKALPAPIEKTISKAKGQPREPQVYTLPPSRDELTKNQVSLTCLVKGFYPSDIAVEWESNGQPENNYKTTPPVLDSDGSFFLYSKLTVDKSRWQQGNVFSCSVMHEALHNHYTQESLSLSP
light: B1 light
notes: mutation in both H chains; also called Ho Ab Q295_09D; Q295D
B9: GpH7-B3 variant P271_16H/GpL16-k0 (antibody, human IgG1, kappa)
heavy: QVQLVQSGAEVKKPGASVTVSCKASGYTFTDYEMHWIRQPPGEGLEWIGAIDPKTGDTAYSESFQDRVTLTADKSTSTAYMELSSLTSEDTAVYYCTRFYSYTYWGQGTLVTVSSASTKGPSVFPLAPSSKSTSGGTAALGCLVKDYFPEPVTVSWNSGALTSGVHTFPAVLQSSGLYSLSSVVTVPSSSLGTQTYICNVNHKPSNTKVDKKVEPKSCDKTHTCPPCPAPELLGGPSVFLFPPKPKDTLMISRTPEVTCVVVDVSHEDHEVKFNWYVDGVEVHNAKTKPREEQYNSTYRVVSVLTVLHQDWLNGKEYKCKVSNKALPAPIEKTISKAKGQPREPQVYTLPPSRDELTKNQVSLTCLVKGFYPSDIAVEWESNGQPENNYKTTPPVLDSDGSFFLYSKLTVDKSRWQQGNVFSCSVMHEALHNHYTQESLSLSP
light: B1 light
notes: mutation in both H chains; also called Ho Ab P271_16H; P271H
B10: GpH7-B3 variant Q295_07I/GpL16-k0 (antibody, human IgG1, kappa)
heavy: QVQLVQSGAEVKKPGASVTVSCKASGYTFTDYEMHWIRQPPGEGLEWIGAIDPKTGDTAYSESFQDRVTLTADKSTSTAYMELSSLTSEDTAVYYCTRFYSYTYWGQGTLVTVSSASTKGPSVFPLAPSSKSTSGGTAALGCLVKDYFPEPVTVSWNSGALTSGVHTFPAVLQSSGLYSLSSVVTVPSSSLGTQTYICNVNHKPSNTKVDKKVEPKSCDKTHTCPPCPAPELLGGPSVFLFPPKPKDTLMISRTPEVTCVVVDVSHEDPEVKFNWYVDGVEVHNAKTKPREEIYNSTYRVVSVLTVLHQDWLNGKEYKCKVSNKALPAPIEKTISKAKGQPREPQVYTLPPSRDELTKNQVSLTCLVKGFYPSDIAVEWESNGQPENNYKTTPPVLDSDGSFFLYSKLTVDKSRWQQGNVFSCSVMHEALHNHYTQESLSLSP
light: B1 light
notes: mutation in both H chains; also called Ho Ab Q295_07I; Q295I
B11: GpH7-B3 variant Q295_08L/GpL16-k0 (antibody, human IgG1, kappa)
heavy: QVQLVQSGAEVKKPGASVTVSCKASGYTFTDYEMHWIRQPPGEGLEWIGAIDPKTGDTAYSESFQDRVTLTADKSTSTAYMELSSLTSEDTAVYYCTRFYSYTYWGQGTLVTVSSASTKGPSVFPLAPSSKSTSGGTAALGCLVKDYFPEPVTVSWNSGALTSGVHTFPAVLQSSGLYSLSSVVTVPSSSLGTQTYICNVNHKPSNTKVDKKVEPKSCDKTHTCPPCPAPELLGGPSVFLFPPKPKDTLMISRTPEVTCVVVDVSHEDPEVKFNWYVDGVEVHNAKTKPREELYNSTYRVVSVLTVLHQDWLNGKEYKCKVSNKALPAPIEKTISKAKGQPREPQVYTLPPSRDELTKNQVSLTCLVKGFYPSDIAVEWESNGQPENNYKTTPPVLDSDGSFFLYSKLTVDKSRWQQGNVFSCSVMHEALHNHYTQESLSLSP
light: B1 light
notes: mutation in both H chains; also called Ho Ab Q295_08L; Q295L
B12: GpH7-B3 variant P271_15Y/GpL16-k0 (antibody, human IgG1, kappa)
heavy: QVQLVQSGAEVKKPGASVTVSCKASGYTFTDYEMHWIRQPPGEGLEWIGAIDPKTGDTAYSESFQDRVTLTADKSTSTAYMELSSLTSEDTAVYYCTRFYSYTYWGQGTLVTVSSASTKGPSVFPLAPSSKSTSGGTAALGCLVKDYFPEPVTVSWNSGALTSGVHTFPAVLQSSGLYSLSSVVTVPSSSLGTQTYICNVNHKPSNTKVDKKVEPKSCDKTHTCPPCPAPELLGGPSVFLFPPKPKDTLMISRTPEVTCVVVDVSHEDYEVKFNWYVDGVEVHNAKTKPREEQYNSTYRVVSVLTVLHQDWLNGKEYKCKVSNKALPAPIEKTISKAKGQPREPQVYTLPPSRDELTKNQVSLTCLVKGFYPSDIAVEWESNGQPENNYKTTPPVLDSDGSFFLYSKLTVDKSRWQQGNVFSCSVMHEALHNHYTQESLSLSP
light: B1 light
notes: mutation in both H chains; also called Ho Ab P271_15Y; P271Y
B13: GpH7-B3 variant P329_01G/GpL16-k0 (antibody, human IgG1, kappa)
heavy: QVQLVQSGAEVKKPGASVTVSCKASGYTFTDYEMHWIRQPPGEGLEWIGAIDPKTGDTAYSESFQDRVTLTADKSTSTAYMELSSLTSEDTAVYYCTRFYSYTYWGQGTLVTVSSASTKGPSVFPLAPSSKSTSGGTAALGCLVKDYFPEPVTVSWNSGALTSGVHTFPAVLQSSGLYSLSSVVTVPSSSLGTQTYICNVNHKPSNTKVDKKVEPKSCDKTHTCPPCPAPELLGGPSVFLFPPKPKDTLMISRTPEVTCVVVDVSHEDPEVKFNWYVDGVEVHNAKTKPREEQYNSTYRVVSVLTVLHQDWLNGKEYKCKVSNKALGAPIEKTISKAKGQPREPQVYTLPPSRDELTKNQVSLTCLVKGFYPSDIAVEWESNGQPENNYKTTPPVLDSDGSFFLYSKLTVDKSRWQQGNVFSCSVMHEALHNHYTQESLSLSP
light: B1 light
notes: mutation in both H chains; also called Ho Ab P329_01G; P329G
B14: GpH7-B3 variant P271_14T/GpL16-k0 (antibody, human IgG1, kappa)
heavy: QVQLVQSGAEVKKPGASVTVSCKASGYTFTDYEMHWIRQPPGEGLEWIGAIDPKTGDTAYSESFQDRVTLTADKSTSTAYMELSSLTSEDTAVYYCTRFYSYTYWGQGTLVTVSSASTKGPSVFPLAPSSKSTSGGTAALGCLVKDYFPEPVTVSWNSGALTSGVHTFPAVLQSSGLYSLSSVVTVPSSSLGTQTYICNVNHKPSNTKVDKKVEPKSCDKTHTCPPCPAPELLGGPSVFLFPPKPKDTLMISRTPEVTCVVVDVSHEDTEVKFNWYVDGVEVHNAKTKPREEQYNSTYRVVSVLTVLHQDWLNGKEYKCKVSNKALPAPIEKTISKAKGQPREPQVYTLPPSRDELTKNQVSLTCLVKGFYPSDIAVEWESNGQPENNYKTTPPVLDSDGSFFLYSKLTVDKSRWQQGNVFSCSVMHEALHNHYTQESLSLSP
light: B1 light
notes: mutation in both H chains; also called Ho Ab P271_14T; P271T
B15: GpH7-B3 variant Q295_03V/GpL16-k0 (antibody, human IgG1, kappa)
heavy: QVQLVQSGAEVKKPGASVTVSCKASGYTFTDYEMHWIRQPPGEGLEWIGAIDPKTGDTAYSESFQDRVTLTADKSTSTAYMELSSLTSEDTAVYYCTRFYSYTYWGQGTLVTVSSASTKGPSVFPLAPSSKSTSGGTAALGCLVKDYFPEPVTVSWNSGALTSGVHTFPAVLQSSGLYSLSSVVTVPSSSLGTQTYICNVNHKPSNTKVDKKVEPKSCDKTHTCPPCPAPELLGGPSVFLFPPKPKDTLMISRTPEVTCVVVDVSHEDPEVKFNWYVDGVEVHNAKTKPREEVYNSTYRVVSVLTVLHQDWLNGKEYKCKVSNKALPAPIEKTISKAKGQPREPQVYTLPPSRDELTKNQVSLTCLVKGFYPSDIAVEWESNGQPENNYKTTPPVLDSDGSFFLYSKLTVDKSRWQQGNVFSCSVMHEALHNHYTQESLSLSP
light: B1 light
notes: mutation in both H chains; also called Ho Ab Q295_03V; Q295V
B16: GpH7-B3 variant P329_02A/GpL16-k0 (antibody, human IgG1, kappa)
heavy: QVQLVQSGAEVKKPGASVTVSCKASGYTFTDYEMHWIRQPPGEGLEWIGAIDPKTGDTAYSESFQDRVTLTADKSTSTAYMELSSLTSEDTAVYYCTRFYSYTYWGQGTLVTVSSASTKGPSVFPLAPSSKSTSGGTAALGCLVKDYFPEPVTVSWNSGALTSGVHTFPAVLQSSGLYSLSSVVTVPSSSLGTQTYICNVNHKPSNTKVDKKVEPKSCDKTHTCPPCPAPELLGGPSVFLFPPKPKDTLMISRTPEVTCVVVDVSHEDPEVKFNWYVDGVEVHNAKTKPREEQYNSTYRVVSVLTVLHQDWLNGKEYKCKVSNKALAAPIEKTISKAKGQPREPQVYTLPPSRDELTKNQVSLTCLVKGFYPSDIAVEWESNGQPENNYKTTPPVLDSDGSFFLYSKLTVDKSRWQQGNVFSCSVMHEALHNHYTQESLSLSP
light: B1 light
notes: mutation in both H chains; also called Ho Ab P329_02A; P329A

The target of one experiment is T4, FcγRIa extracellular domain with C-terminal His tag (human, UniProt P12314 16-292).
T4 construct: extracellular domain; Soluble receptor expressed in FreeStyle293 cells and used as analyte in Biacore; also called FcgRI; 1a; not shown: His tag at the C terminus
Put plainly: SPR Biacore, relative binding amount.
T4 sequence (P12314 16-292): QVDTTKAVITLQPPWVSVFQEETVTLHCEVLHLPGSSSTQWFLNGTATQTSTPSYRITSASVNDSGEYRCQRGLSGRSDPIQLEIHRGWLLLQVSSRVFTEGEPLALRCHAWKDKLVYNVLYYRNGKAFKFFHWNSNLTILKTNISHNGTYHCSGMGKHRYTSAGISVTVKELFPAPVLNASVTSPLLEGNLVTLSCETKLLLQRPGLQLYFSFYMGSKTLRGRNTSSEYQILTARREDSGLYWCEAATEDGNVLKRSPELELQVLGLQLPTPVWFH
As for B1, the He/Con_1a is 109 % of GpH7-A5/GpH7-B3/GpL16-k0 (=100).

As for B2, the He/Con_1a is 105 % of GpH7-A5/GpH7-B3/GpL16-k0 (=100).

With B3, the He/Con_1a is 93.7 % of GpH7-A5/GpH7-B3/GpL16-k0 (=100).

The next experiment addresses T1, FcγRIIb extracellular domain with …. Put plainly: SPR Biacore, relative binding amount.
B1: the He/Con_2b is 65.4 % of GpH7-A5/GpH7-B3/GpL16-k0 (=100).

For the molecule B2, the He/Con_2b was 72.8 % of GpH7-A5/GpH7-B3/GpL16-k0 (=100).

For B3, the He/Con_2b was 44.4 % of GpH7-A5/GpH7-B3/GpL16-k0 (=100).

In another experiment the target is T2, FcγRIIb. Nature of the experiment: SPR (Biacore), captured antibody, FcγR analyte; relative to GpH7-A5/GpH7-B3/GpL16-k0 = 100. The procedure: (§1) The heterodimerized antibodies He Abs in which one of the H chains was introduced with an alteration were assayed for their binding activities to each activating FcγR and inhibitory FcγR according to the method described in Example 4. […] The activating FcγRs in FIGS. 26, 27, 28, and 29 are FcγRIa, FcγRIIa (R), FcγRIIa (H), and FcγRIIIa, respectively.
(§2) Analysis of interaction between objective antibody and the FcγR was carried out using Biacore T100 (GE Healthcare). HBS-EP+ (GE Healthcare) was used as the running buffer, and the measurement temperature was set to 25° C. Chips produced by immobilizing the antigen peptide by the amine coupling method to a Series S Sencor Chip CM5 (GE Healthcare), or alternatively, chips produced by allowing preliminarily biotinylated antigen peptides to interact with and immobilize onto a Series S Sensor Chip SA (certified) (GE Healthcare) were used. Antibodies of interest were captured onto an antigen peptide-immobilized chip, and allowed to interact to each FcγR diluted with running buffer. To regenerate and repeatedly use the chip, the antibodies captured on the chip were washed off by reacting 10 mM glycine-HCl, pH 1.5.
Consider B4, for which the He/Con_2b was 95.9 relative (control = 100).

Another experiment has as its target T3, FcγRIIa H. Described as above. On the procedure: as §1, §2
With B4, the He/Con_2aH is 52.5 relative (control = 100).

A further experiment deals with T3, FcγRIIa H. Nature of the experiment: SPR (Biacore); He/Con_2aH divided by He/Con_2b (FcγRIIb) of the same antibody.
B4: the He_2aH/2b was determined as 0.55 ratio.

A further experiment has as its target T5, FcγRIa extracellular domain with C-terminal His tag (human, UniProt P12314 16-292).
T5 construct: extracellular domain; also called FcgRI; CD64; not shown: His tag at the C terminus
Put plainly: SPR Biacore, relative FcγRIa binding vs GpH7-B3/GpL16-k0.
T5 sequence (P12314 16-292): as above
For the molecule B5, the Ho/Con_1a is 99.9 % of HoCon Ab (=100).

For the molecule B6, the Ho/Con_1a was 100 % of HoCon Ab (=100).

Take B7: the Ho/Con_1a is 101 % of HoCon Ab (=100).

Consider B8, for which the Ho/Con_1a is 96.8 % of HoCon Ab (=100).

For B9, the Ho/Con_1a is 99.4 % of HoCon Ab (=100).

As to B10, the Ho/Con_1a is 101 % of HoCon Ab (=100).

As for B11, the Ho/Con_1a is 103 % of HoCon Ab (=100).

As for B12, the Ho/Con_1a was 99.4 % of HoCon Ab (=100).

For B13, the Ho/Con_1a was 89.5 % of HoCon Ab (=100).

B14: the Ho/Con_1a was 99.5 % of HoCon Ab (=100).

Regarding B15, the Ho/Con_1a was 102 % of HoCon Ab (=100).

For B16, the Ho/Con_1a is 98.2 % of HoCon Ab (=100).

In a further experiment the target is T4, FcγRIa extracellular domain with …. Put plainly: SPR Biacore; relative binding to FcγRIa divided by that to FcγRIIb.
For B1, the “Ia/IIb He_1a/2b” value is 1.67 ratio of He/Con_1a to He/Con_2b.

With B2, the “Ia/IIb He_1a/2b” value is 1.44 ratio of He/Con_1a to He/Con_2b.

Consider B3, for which the “Ia/IIb He_1a/2b” value is 2.11 ratio of He/Con_1a to He/Con_2b.
